This data set can be described thus: self-splicing fitness, log relative to wild type (ln ratio); higher = more splicing; Tetrahymena group I intron in knt gene, E. coli kanamycin selection, DiMSum; sequences stand for … in CUCUCU…GGAGGGAAAAGUUAUCAGGCAUGCACCUGGUAGCUAGUCUUUAAACCAAUAGAUUGCAUCGGUUUAAAAGGCAAGACCGUCAAAUUGCGGGAAAGGGGUCAACAGCCGUUCAGUACCAAGUCUCAGGGGAAACUUUGAGAUGGCCUUGCAAAGGGUAUGGUAAUAAGCUGACGGACAUGGUCCUAACCACGCAGCCAAGUCCUAAGUCAACAGAUCUUCUGUUGAUAUGGAUGCAGUUCACAGACUAAAUGUCGGUCGGGGAAGAUGUAUUCUUCUCAUAAGAUAUAGUCGGACCUCUCCUUAAUGGGAGCUAGCGGAUGAAGUGAUGCAACACUGGAGCCGCUGGGAACUAAUUUGUAUGCGAAAGUAUAUUGAUUAGUUUUGGAGUACUCGUGGUCG
In a few lines: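 Six replicate transformations of E. coli BL21(DE3) with a pET-22b(+) library were grown overnight at 37°C or 30°C. The library randomised all eight P1ex-region intron nucleotides, the intron lying in the knt kanamycin-resistance gene, and plates were LB agar with or without 25 μg/mL kanamycin plus 100 μg/mL carbenicillin, 50 μM IPTG and 0.2% rhamnose. Pooled colonies were amplicon-sequenced on an Illumina HiSeq 2500, and fitness is the DiMSum error-weighted combination of wild-type-normalised replicate fold changes, kanamycin versus none.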

± gives the uncertainty stated by the source.

As to CGAUAGCAAUAUUACGGCAU, the “self-splicing fitness (ln)” value was -2.85 ± 0.21 (30 °C) and -2.54 ± 0.26 (37 °C).

For the sequence CCGCAGCAAUAUUACGCAAU, the “self-splicing fitness (ln)” value (30 °C) is -3.95 ± 0.18 and the “self-splicing fitness (ln)” value (37 °C) is -3.67 ± 0.27. In the case of UGGGAGCAAUAUUACGAGGA, the “self-splicing fitness (ln)” value (37 °C) was -3.9 ± 0.47. Regarding GGGAAGCAAUAUUACGGAAA, the “self-splicing fitness (ln)” value is, setting by setting: (30 °C) -1.4 ± 0.32; (37 °C) -1.41 ± 0.36. The corresponding values for AUAAAGCAAUAUUACGCAAU are -0.8 ± 0.074 and -0.703 ± 0.11. With AGCUAGCAAUAUUACGAGAU, the “self-splicing fitness (ln)” value is, setting by setting: (30 °C) -3.17 ± 0.19; (37 °C) -1.22 ± 0.16. On to GUCAAGCAAUAUUACGAAAA, for which the “self-splicing fitness (ln)” value (30 °C) was -1.95 ± 0.41 and the “self-splicing fitness (ln)” value (37 °C) is -2.53 ± 0.31. The matching figures for UUGUAGCAAUAUUACGACCG: -0.716 ± 0.36 and -0.156 ± 0.26. The matching figures for UAGCAGCAAUAUUACGGACC: -1.74 ± 0.18 and -1.67 ± 0.29. As for GGUAAGCAAUAUUACGGCUC, the “self-splicing fitness (ln)” value is, setting by setting: (30 °C) -0.214 ± 0.14; (37 °C) -0.443 ± 0.16.

As to UAUAAGCAAUAUUACGAAAA, the “self-splicing fitness (ln)” value by setting is: (30 °C) -1.72 ± 0.31; (37 °C) -1.27 ± 0.31. As for AUGUAGCAAUAUUACGCUCA, the “self-splicing fitness (ln)” value reads like this: (30 °C) -0.372 ± 0.075; (37 °C) -0.2 ± 0.1. On to UGUCAGCAAUAUUACGUUUC, for which the “self-splicing fitness (ln)” value (37 °C) is -2.07 ± 0.28. UGUUAGCAAUAUUACGCGUU: the “self-splicing fitness (ln)” value is, setting by setting: (30 °C) -1.38 ± 0.1; (37 °C) -1.01 ± 0.11. Consider GUAAAGCAAUAUUACGACGC, for which the “self-splicing fitness (ln)” value is, setting by setting: (30 °C) 0.577 ± 0.16; (37 °C) 0.0941 ± 0.19. For the sequence UGUAAGCAAUAUUACGAGCG, the “self-splicing fitness (ln)” value is, setting by setting: (30 °C) 0.195 ± 0.1; (37 °C) 0.758 ± 0.14.

Regarding AGACAGCAAUAUUACGUUCA, the “self-splicing fitness (ln)” value reads like this: (30 °C) -0.336 ± 0.056; (37 °C) -0.159 ± 0.086.

On to CCGAAGCAAUAUUACGGCUC, for which the “self-splicing fitness (ln)” value runs as follows: (30 °C) -3.57 ± 0.32; (37 °C) -2.81 ± 0.35. Turning to GCUCAGCAAUAUUACGAAGC, the “self-splicing fitness (ln)” value (30 °C) was -2.75 ± 0.12 and the “self-splicing fitness (ln)” value (37 °C) was -2.33 ± 0.15. For AUCAAGCAAUAUUACGCGAC, the “self-splicing fitness (ln)” value was -2.01 ± 0.23 (30 °C) and -1.58 ± 0.22 (37 °C). With AAUAAGCAAUAUUACGGCUG, the “self-splicing fitness (ln)” value is -0.2 ± 0.085 (30 °C) and 0.42 ± 0.1 (37 °C). Consider UAGAAGCAAUAUUACGUUUA, for which the “self-splicing fitness (ln)” value reads like this: (30 °C) -1.21 ± 0.11; (37 °C) -0.575 ± 0.098.

As for AAGUAGCAAUAUUACGUGUU, the “self-splicing fitness (ln)” value was -2.27 ± 0.093 (30 °C) and -1.2 ± 0.095 (37 °C).

For the sequence GUUUAGCAAUAUUACGUAAC, the “self-splicing fitness (ln)” value runs as follows: (30 °C) -2.2 ± 0.29; (37 °C) -1.96 ± 0.39. With CAUAAGCAAUAUUACGCUCG, the “self-splicing fitness (ln)” value runs as follows: (30 °C) -0.821 ± 0.11; (37 °C) -0.252 ± 0.12. Turning to GCUCAGCAAUAUUACGGAGA, the “self-splicing fitness (ln)” value was -0.638 ± 0.095 (30 °C) and 0.284 ± 0.14 (37 °C). The matching figures for AGUUAGCAAUAUUACGUAUC: -3.63 ± 0.2 and -2.25 ± 0.18. The matching figures for CGAAAGCAAUAUUACGUCGG: -0.496 ± 0.06 and -0.0301 ± 0.071. Consider GACGAGCAAUAUUACGUCUA, for which the “self-splicing fitness (ln)” value is -2.4 ± 0.23 (30 °C) and -1.43 ± 0.13 (37 °C). For UGAUAGCAAUAUUACGGCUU, the “self-splicing fitness (ln)” value (30 °C) is -1.2 ± 0.19 and the “self-splicing fitness (ln)” value (37 °C) was 0.584 ± 0.17. The corresponding values for GGAUAGCAAUAUUACGAUUG are -1.55 ± 0.15 and -1.44 ± 0.24. Turning to UAGAAGCAAUAUUACGAGCC, the “self-splicing fitness (ln)” value (37 °C) is -2.23 ± 0.26.

For ACGCAGCAAUAUUACGCGCA, the “self-splicing fitness (ln)” value was -0.215 ± 0.096 (30 °C) and 0.231 ± 0.11 (37 °C). The corresponding values for UCGAAGCAAUAUUACGCUCG are -2.53 ± 0.31 and -1.39 ± 0.27.

With UAGCAGCAAUAUUACGCCAU, the “self-splicing fitness (ln)” value (30 °C) is -4.36 ± 0.3 and the “self-splicing fitness (ln)” value (37 °C) was -2.32 ± 0.14. Turning to UGGAAGCAAUAUUACGUCCA, under “30 °C”, the “self-splicing fitness (ln)” value was -2.02 ± 0.39. Consider AGCCAGCAAUAUUACGGAUG, for which the “self-splicing fitness (ln)” value reads like this: (30 °C) -1.85 ± 0.1; (37 °C) -0.824 ± 0.12. Consider GUGAAGCAAUAUUACGGACG, for which the “self-splicing fitness (ln)” value came to 0.234 ± 0.081 (30 °C) and 0.144 ± 0.092 (37 °C). As for AAAUAGCAAUAUUACGCAAC, the “self-splicing fitness (ln)” value by setting is: (30 °C) -3.16 ± 0.37; (37 °C) -1.53 ± 0.26. For GAAAAGCAAUAUUACGGACU, the “self-splicing fitness (ln)” value runs as follows: (30 °C) 0.147 ± 0.069; (37 °C) 0.272 ± 0.087. UGAUAGCAAUAUUACGUCCA: the “self-splicing fitness (ln)” value stood at 0.015 ± 0.09 (30 °C) and 0.154 ± 0.12 (37 °C). On to CGCUAGCAAUAUUACGGUAG, for which the “self-splicing fitness (ln)” value is, setting by setting: (30 °C) -2.52 ± 0.11; (37 °C) -2 ± 0.13.

For GCUGAGCAAUAUUACGUGCU, the “self-splicing fitness (ln)” value is -3.42 ± 0.12 (30 °C) and -3.39 ± 0.2 (37 °C).

CAUCAGCAAUAUUACGAGAU: the “self-splicing fitness (ln)” value reads like this: (30 °C) -3.84 ± 0.18; (37 °C) -3.71 ± 0.21. For GCUGAGCAAUAUUACGUGCG, the “self-splicing fitness (ln)” value reads like this: (30 °C) -1.62 ± 0.099; (37 °C) -1.01 ± 0.14.

In the case of UAGAAGCAAUAUUACGAUAG, the “self-splicing fitness (ln)” value runs as follows: (30 °C) -1.57 ± 0.15; (37 °C) -0.522 ± 0.15.

Consider GCAUAGCAAUAUUACGCACA, for which the “self-splicing fitness (ln)” value (30 °C) was -0.886 ± 0.11 and the “self-splicing fitness (ln)” value (37 °C) was 0.000212 ± 0.091.

For UGAUAGCAAUAUUACGGGAG, the “self-splicing fitness (ln)” value (30 °C) is -3.64 ± 0.29 and the “self-splicing fitness (ln)” value (37 °C) was -2.19 ± 0.21. For the sequence ACAGAGCAAUAUUACGGUGA, the “self-splicing fitness (ln)” value (30 °C) is -2.32 ± 0.13 and the “self-splicing fitness (ln)” value (37 °C) is -2.41 ± 0.21.

As for UACUAGCAAUAUUACGAGAU, the “self-splicing fitness (ln)” value was -2.46 ± 0.23 (30 °C) and -1.54 ± 0.28 (37 °C). For the sequence AAGUAGCAAUAUUACGGCAG, the “self-splicing fitness (ln)” value by setting is: (30 °C) -2.54 ± 0.18; (37 °C) -1.77 ± 0.18. CCAAAGCAAUAUUACGCCUA: the “self-splicing fitness (ln)” value (30 °C) was -4.18 ± 0.33 and the “self-splicing fitness (ln)” value (37 °C) was -3.12 ± 0.35. The corresponding values for GUUUAGCAAUAUUACGCCUA are -0.696 ± 0.28 and -0.827 ± 0.4. On to GUGUAGCAAUAUUACGUUUA, for which the “self-splicing fitness (ln)” value reads like this: (30 °C) -2.51 ± 0.23; (37 °C) -2.01 ± 0.15. As for GUUGAGCAAUAUUACGCCUU, the “self-splicing fitness (ln)” value by setting is: (30 °C) -2.32 ± 0.28; (37 °C) -1.78 ± 0.36. As for CAAAAGCAAUAUUACGUUUU, the “self-splicing fitness (ln)” value is -3.57 ± 0.12 (30 °C) and -2.79 ± 0.16 (37 °C). The matching figures for GCAGAGCAAUAUUACGCGCG: -2.8 ± 0.17 and -1.49 ± 0.14.

On to UUUUAGCAAUAUUACGUCCG, for which the “self-splicing fitness (ln)” value was -2.37 ± 0.34 (30 °C) and 0.963 ± 0.33 (37 °C).

Turning to CUGCAGCAAUAUUACGGGCA, the “self-splicing fitness (ln)” value is -3.01 ± 0.17 (30 °C) and -1.06 ± 0.14 (37 °C).

GCCCAGCAAUAUUACGAGUU: the “self-splicing fitness (ln)” value reads like this: (30 °C) -1.13 ± 0.048; (37 °C) -0.432 ± 0.066.

For ACCGAGCAAUAUUACGUAAC, the “self-splicing fitness (ln)” value runs as follows: (30 °C) -4.02 ± 0.32; (37 °C) -2.88 ± 0.35.

For the origin of these results see the supplement of paper PMC7877785.
